Assay results reported in FireProtDB (doi:10.1110/ps.8.12.2645).

Settings: Saccharomyces cerevisiae (strain ATCC 204508 / S288c), pH 6, Thermal, DSC, Sodium phosphate 0.1 M, reversible: yes

Sequence of Cytochrome c isoform 1 wild type, P00044 (P00044 whole entry, canonical isoform): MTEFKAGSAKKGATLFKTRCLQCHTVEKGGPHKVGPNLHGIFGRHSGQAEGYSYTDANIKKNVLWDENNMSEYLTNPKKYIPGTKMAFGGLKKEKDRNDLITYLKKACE
Sequence of Cytochrome c isoform 1 L91A, P00044 (P00044 whole entry L91A, canonical isoform): as the sequence (P00044 whole entry, canonical isoform) above, with L91A counted along it
Sequence of Cytochrome c isoform 1 F88Y, P00044 (P00044 whole entry F88Y, canonical isoform): as the sequence (P00044 whole entry, canonical isoform) above, with F88Y counted along it
Sequence of Cytochrome c isoform 1 F88Y|L91A, P00044 F88Y L91A (P00044 whole entry F88Y/L91A, canonical isoform): as the sequence (P00044 whole entry, canonical isoform) above, with F88Y, L91A counted along it

Substance	unfolding enthalpy (calorimetric) (60 °C, structure 1YCC) [kcal/mol]	Tm (structure 1YCC) [°C]	heat capacity change of unfolding (structure 1YCC) [kcal/mol/K]	unfolding enthalpy (calorimetric) (structure 1YCC) [kcal/mol]	unfolding enthalpy (van 't Hoff) (structure 1YCC) [kcal/mol]	ddG of mutation (higher = less stable) (25 °C, structure 1YCC) [kcal/mol]	heat capacity change of unfolding (25 °C, structure 1YCC) [kcal/mol/K]	unfolding enthalpy (calorimetric) (25 °C, structure 1YCC) [kcal/mol]	unfolding free energy (25 °C, structure 1YCC) [kcal/mol]	unfolding free energy (60 °C, structure 1YCC) [kcal/mol]	heat capacity change of unfolding (25 °C) [kcal/mol/K]	unfolding enthalpy (calorimetric) (25 °C) [kcal/mol]	unfolding free energy (25 °C) [kcal/mol]	unfolding enthalpy (calorimetric) (60 °C) [kcal/mol]	Tm [°C]	heat capacity change of unfolding [kcal/mol/K]	unfolding enthalpy (calorimetric) [kcal/mol]	unfolding enthalpy (van 't Hoff) [kcal/mol]
Cytochrome c isoform 1 F88Y|L91A, P00044 F88Y L91A	80	45.6	0.31	57	92													
Cytochrome c isoform 1 F88Y, P00044	83	55.8	0.58	76	103	0.7	0.58	27	4.8	1.01								
Cytochrome c isoform 1 wild type, P00044											0.26	26	5.5	81	60	0.26	81	110
Cytochrome c isoform 1 L91A, P00044	79	46.3	0.45	57	88	2.8	0.45	23	2.7	2.9								
